The text below walks through data of PMC9271180 (Proceedings of the National Academy of Sciences of the …, 2022).

pEC50: −log10 of the molar value.

The target of assay [1] is HrtB permease subunit of the heme efflux pump HrtBA from Corynebacterium diphtheriae (Corynebacterium diphtheriae NCTC13129). Put plainly: crystal structure.
The test system of the next assay is HrtBA. Conditions: 2 mM ATP; lipid nanodiscs; 37 °C; activation of ATPase; site in HrtB dimer.

With “HrtB permease subunit of the heme efflux pump HrtBA from Corynebacterium diphtheriae (natural protein)”, the stoichiometry N – broadly, a count of units in the complex or per binding partner – in assay [1] is 2. With `C=CC1=C(C)C2=Cc3c(C=C)c(C)c4[n]3[Fe+][n]3c(c(C)c(CCC(=O)O)c3=CC3=NC(=C4)C(C)=C3CCC(=O)O)=CC1=N2` [heme], in the assay on HrtBA, the pEC50 (as a rule, the negative decadic logarithm of the EC50, by convention in mol/L) is 6.05.
